According to PMC6620605 (Current biology : CB, 2019):

Biological target: T1, 6x His-SEPT9 (human septin 9, isoform 1 / isoform a) (human, UniProt Q9UHD8-1 1-586)
T1 sequence (looked up): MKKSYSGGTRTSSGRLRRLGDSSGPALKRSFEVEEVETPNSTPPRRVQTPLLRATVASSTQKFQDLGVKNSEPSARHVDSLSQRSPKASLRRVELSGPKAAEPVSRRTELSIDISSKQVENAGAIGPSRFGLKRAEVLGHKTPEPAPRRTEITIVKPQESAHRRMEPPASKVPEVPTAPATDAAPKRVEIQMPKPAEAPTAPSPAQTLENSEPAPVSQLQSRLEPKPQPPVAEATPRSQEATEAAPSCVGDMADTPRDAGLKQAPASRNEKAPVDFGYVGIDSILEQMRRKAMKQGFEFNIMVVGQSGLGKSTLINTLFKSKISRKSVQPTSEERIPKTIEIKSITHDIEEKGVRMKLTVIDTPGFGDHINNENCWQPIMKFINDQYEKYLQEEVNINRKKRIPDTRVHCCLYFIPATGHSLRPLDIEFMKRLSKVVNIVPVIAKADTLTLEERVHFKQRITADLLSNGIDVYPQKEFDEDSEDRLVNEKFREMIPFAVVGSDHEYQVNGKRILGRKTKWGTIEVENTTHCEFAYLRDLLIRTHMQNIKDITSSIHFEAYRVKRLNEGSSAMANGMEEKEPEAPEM
Test: pull-down

B1: GST-TSG101 UEV (TSG101 aa 1-145) (domain or fragment, human, UniProt Q99816-1 1-145, looked up)
chain: MAVSESQLKKMVSKYKYRDLTVRETVNVITLYKDLKPVLDSYVFNDGSSRELMNLTGTIPVPYRGNTYNIPICLWLLDTYPYNPPICFVKPTSSMTIKTGKHVDANGKIYLPYLHEWKHPQSDLLGLIQVMIVVFGDEPPVFSRP
binding result: binds
